Measured values: patent US8338168B2

How the values were obtained:
[1] = target: RDPrHIV mutant glycoprotein (feline endogenous virus RD114)
[2] = target: CH-296 retronectin fragment (Homo sapiens (Human)) (UniProt P02751)

Substance: MLV viral core protease (enzyme)
- infectivity of MLV pseudotyped vectors on TE671 cells [1]: < 20 fold

Substance: RD114/TR chimeric glycoprotein
- transduction efficiency of human CD34+ cells on retronectin-coated plates against no retronectin [2]: 10 fold
